Experimental data reported in patent US20220389118A1 (Chugai, published 2022).
Positions count from the first letter of the chain named.

T1: human FcγRIIb extracellular domain with C-terminal His tag (human, UniProt P31994 43-217)
T1 construct: extracellular domain; also called FcgRIIb
T1 sequence (looked up): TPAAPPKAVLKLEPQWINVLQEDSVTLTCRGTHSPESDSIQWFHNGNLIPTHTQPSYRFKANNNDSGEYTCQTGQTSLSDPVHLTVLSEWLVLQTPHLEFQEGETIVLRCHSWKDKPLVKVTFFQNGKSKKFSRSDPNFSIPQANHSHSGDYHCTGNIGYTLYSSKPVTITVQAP

T2: human FcγRIIa type R extracellular domain with C-terminal His tag (human, UniProt P12318 34-217)
T2 construct: extracellular domain; also called FcγRIIaR; FcgRIIaR
T2 sequence (looked up): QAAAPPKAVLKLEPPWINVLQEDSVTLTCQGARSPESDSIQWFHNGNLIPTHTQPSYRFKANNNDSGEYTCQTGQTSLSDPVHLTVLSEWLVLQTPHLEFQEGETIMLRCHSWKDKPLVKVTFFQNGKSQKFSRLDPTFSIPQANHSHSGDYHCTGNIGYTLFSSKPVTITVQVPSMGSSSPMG

T3: human FcγRIIa type R (allotype R131) extracellular domain with C-terminal His tag (human, UniProt P12318 34-217)
T3 construct: extracellular domain; also called FcγRIIaR; FcγRIIa R type; not shown: His tag at the C terminus
T3 sequence (looked up): T2 sequence (looked up)

B1: IL6R-BP118/IL6R-L (antibody, human IgG1, kappa)
heavy: QVQLQESGPGLVKPSETLSLTCAVSGHSISHDHAWSWVRQPPGEGLEWIGFISYSGITNYNPSLQGRVTISRDNSKNTLYLQMNSLRAEDTAVYYCARSLARTTAMDYWGEGTLVTVSSASTKGPSVFPLAPSSKSTSGGTAALGCLVKDYFPEPVTVSWNSGALTSGVHTFPAVLQSSGLYSLSSVVTVPSSSLGTQTYICNVNHKPSNTKVDKKVEPKSCDKTHTCPPCPAPELLGGDSVFLFPPKPKDTLMISRTPEVTCVVVDVSHEDPEVKFNWYVDGVEVHNAKTKPREEQYNSTYRVVSVLTVLHQDWLNGKEYKCKVSNSALPAPIEKTISKAKGQPREPQVYTLPPSRDELTKNQVSLTCLVKGFYPSDIAVEWESNGQPENNYKTTPPVLDSDGSFFLYSKLTVDKSRWQQGNVFSCSVMHEALHNHYTQESLSLSP
light: not shown
notes: IgG1 type
B2: IL6R-BP911/IL6R-L (antibody, human IgG1, kappa)
heavy: B1 heavy with S328K, A332K
light: not shown
notes: IgG1 type
B3: IL6R-BP107/IL6R-L (antibody, human IgG1, kappa)
heavy: B1 heavy with H270E, S328K
light: not shown
notes: IgG1 type
B4: IL6R-BP116/IL6R-L (antibody, human IgG1, kappa)
heavy: B1 heavy with S328T
light: not shown
notes: IgG1 type
B5: IL6R-BP120/IL6R-L (antibody, human IgG1, kappa)
heavy: B1 heavy with S328E
light: not shown
notes: IgG1 type
B6: IL6R-BP078/IL6R-L (antibody, human IgG1, kappa)
heavy: B1 heavy with S328K, A332M
light: not shown
notes: IgG1 type
B7: IL6R-BP100/IL6R-L (antibody, human IgG1, kappa)
heavy: B1 heavy with S269A, S328K
light: not shown
notes: IgG1 type
B8: IL6R-BP117/IL6R-L (antibody, human IgG1, kappa)
heavy: B1 heavy with S328D
light: not shown
notes: IgG1 type
B9: IL6R-BP103/IL6R-L (antibody, human IgG1, kappa)
heavy: B1 heavy with S269V, S328K
light: not shown
notes: IgG1 type
B10: IL6R-BP102/IL6R-L (antibody, human IgG1, kappa)
heavy: B1 heavy with S269Q, S328K
light: not shown
notes: IgG1 type
B11: IL6R-BP126/IL6R-L (antibody, human IgG1, kappa)
heavy: B1 heavy with S328L
light: not shown
notes: IgG1 type
B12: IL6R-2B171/IL6R-L (antibody, human IgG1, kappa)
heavy: B1 heavy with V325L, S328K
light: not shown
notes: IgG1 type
B13: IL6R-BP183/IL6R-L (antibody, human IgG1, kappa)
heavy: B1 heavy with E235D, L236Y, P273G, S328A, A332K
light: not shown
notes: copies: 2 + 2
B14: IL6R-BP196/IL6R-L (antibody, human IgG1, kappa)
heavy: B1 heavy with L236Y, H270D, P273G, S328A, A332K
light: not shown
notes: copies: 2 + 2
B15: IL6R-BP211/IL6R-L (antibody, human IgG1, kappa)
heavy: B1 heavy with E235D, H270D, P273G, S328A, A332R
light: not shown
notes: copies: 2 + 2
B16: IL6R-BP197/IL6R-L (antibody, human IgG1, kappa)
heavy: B1 heavy with E235D, L236Y, G239D, H270D, P273G, Y298D, S328D, A332K
light: not shown
notes: copies: 2 + 2

Molecular target: T1, human FcγRIIb extracellular domain with …
Test: SPR (Biacore), antibody captured, FcγR as analyte

| KD(IIb) of parent polypeptide/KD(IIb) of altered polypeptide [fold vs IL6R-B3/IL6R-L] | Kd [µM] | Binder |
| --- | --- | --- |
| 2.7 |  | B1 |
| 3.5 |  | B2 |
| 3.3 |  | B3 |
| 2.8 |  | B4 |
| 3 | 1 | B5 |
| 2.8 |  | B6 |
| 2.9 |  | B7 |
| 3.9 | 0.8 | B8 |
| 2.5 |  | B9 |
| 3.4 | 0.9 | B10 |
| 2.2 |  | B11 |
| 2.9 |  | B12 |

Molecular target: T2, human FcγRIIa type R extracellular …
Test: SPR (Biacore), antibody captured, FcγR as analyte

| Kd [µM] | Binder |
| --- | --- |
| 15 | B1 |
| 16 | B2 |
| 12 | B3 |
| 15 | B4 |
| 9.6 | B5 |
| 15 | B6 |
| 7.8 | B7 |
| 9.2 | B8 |
| 11 | B9 |
| 8.4 | B10 |
| 11 | B11 |
| 16 | B12 |

Molecular target: T3, human FcγRIIa type R (allotype R131) …
Test: SPR (Biacore), antibody captured, FcγR analyte

| Kd [µM] | Binder |
| --- | --- |
| 2.6 | B13 |
| 3 | B14 |
| 4.1 | B15 |
| 0.98 | B16 |

Molecular target: T4, human FcγRIIIa type V (allotype V158) extracellular domain with C-terminal His tag (human, UniProt P08637 17-208)
T4 construct: extracellular domain; also called FcγRIIIaV; FcγRIIIa V type; not shown: His tag at the C terminus
Test: SPR (Biacore), antibody captured, FcγR analyte

T4 sequence (P08637 17-208 F176V): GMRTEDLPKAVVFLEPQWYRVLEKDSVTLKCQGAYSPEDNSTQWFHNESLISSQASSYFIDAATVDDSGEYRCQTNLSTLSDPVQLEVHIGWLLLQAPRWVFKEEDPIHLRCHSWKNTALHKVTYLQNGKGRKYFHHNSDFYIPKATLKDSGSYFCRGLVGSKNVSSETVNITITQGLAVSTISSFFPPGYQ

| Kd [µM] | Binder |
| --- | --- |
| 56 | B13 |
| 51 | B14 |
| 73 | B15 |
| 33 | B16 |
